Earlier results in paper PMC12860966.
pKi: −log10 of the molar value.

Target: MMP-9 (Homo sapiens) (UniProt P14780)
Chain of UniProt P14780 (P14780 94-707): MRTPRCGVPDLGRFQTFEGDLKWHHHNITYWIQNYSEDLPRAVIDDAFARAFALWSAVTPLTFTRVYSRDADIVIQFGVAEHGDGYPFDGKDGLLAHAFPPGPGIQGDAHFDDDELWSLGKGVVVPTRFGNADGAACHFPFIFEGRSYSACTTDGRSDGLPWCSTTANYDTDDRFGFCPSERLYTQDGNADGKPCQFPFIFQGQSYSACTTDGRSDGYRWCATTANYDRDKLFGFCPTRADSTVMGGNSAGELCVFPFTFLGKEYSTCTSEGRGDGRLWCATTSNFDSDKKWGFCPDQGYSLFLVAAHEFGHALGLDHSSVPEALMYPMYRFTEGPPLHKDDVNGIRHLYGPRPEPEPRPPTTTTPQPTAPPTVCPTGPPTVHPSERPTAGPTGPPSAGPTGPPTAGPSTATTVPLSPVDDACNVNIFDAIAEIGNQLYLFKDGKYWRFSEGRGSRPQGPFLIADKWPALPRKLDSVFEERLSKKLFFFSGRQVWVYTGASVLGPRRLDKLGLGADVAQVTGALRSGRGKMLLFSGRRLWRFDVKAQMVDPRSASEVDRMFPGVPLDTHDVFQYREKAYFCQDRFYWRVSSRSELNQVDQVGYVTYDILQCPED

For TIMP-1 (from UniProt P01033), the pKi is listed as 8.47.
